This passage reports Kd results from patent US20220017616A1 (published 2022).

Holding throughout (assay): Biacore SPR
(In general: SPR reads the build-up and loss of mass on a sensor chip optically.)

One test deals with 31B3.001.
The next test deals with cynomolgus TIGIT.
A further test addresses T1, human TIGIT (UniProt Q495A1 22-244).
T1 chain: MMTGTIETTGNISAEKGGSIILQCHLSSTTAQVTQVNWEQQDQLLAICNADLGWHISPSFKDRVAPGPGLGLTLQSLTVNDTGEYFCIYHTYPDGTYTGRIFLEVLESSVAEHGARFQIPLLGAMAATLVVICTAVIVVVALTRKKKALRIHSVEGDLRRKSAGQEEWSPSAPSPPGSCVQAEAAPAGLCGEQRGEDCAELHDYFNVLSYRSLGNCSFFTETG

The target in the next test is T2, human CD112R (N81D).
T2 chain: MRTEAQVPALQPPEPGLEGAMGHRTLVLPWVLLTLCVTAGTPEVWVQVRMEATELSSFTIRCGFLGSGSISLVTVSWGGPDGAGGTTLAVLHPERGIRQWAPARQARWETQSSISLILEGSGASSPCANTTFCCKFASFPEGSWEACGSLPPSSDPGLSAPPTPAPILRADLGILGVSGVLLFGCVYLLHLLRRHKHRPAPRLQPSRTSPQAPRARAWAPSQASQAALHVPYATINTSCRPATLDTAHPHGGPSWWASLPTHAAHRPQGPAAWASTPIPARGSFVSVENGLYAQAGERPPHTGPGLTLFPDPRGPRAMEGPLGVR

Sequence of cynomolgus TIGIT (chain, as listed by the source): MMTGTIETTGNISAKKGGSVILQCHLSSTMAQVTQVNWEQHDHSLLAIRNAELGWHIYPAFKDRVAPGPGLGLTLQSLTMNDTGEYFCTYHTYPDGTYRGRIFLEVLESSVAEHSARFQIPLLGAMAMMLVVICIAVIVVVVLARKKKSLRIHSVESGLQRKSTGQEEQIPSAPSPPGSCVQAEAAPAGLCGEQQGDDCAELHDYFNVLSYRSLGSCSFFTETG

B1: human CD112R (receptor)
chain: TPEVWVQVRMEATELSSFTIRCGFLGSGSISLVTVSWGGPNGAGGTTLAVLHPERGIRQWAPARQARWETQSSISLILEGSGASSPCANTTFCCKFASFPEGSWEACGSLPPSSDPGLSAPPTPAPILRADLAGILGVSGVLLFGCVYLLHLLRRHKHRPAPRLQPSRTSPQAPRARAWAPSQASQAALHVPYATINTSCRPATLDTAHPHGGPSWWASLPTHAAHRPQGPAAWASTPIPARGSFVSVENGLYAQAGERPPHTGPGLTLFPDPRGPRAMEGPLGVR
As usually defined, the Kd is a measure of binding affinity in units of concentration. With B1, in the test with 31B3.001, binding was put at a Kd of 2.29 nM.

B2: 55G7.041 (antibody, V domains shown)
VH: EVQLVESGGGVVQPGGSLRLSCAASGFTFSSYGMHWVRQAPGKGLEWVALIWFDESNIYYADAVKGRFTISRDNAKNTLYLQMNSLRAEDTAVYFCARGYDLLTGYYNFDFWGQGTLVTVSS
VL: QAGLTQPPSVSKGLRQTATLTCTGNANNVGNRGAAWLQQHQGHPPKLLSYRNNNRPSGISERLSASRSGNTASLTITGLQPEDEADYYCSAWDSSLSAWVFGGGTKLTVLG
B2: the Kd with cynomolgus TIGIT worked out at 25 nM; with human TIGIT, 0.228 nM.

B3: 66H9.009 (antibody, V domains shown)
VH: QVQLQESGPGLVKPSETLSLTCTVSGGSISSVYFYWNWIRQPPGKGLEWIGYIYYSGGTYYNPSLRSRVTISVDTSKNQFSLKLNSVTAADTAVYYCARGSIAAGGGYFYYNDMDVWGQGTTVTVSS
VL: EIVLTQSPDFQSVTPKEKVAITCRASQSIGSSLHWYQQKPDQSPKPLIKYVSQSFSGVPSRFSGSGSGTDFTLTINSLEAEDAATYYCHQSSSLPLTFGGGTKVEIKR
B3: the Kd in the test with cynomolgus TIGIT is 34.7 nM; with human TIGIT, 0.0523 nM.

B4: 43B7.002.015 (antibody, V domains shown)
VH: QVQLQESGPGLVKPSETLSLTCTVSGGSISSGGYYWSWIRQHPGKGLEWIGYIYYRGGTYYNPSLRSRVTMSVDTSKNQFSLRLSSVTAADTAVYYCARTIFGVIILDNWGQGTPVTVSS
VL: DIQMTQSPSSLSASVGDRVTITCRSSQSISSYLNWYQQKPGRAPKLLIYAASSLQSGVPSRFSGSGSGTDFTLTISSLQPEDFASYYCQQSYTTPPTFGGGTKVEIKR
Take B4: the Kd in the test with cynomolgus TIGIT was 13 nM; with human TIGIT, 0.0519 nM.

B5: 58A7.003.008 (antibody, V domains shown)
VH: QVQLQESGPGLVKPSETLSLTCTVSGGSISSGGYYWNWIRQPPGKGLEWIGYIYYSGSTFYNPSLKSRVTISVDTSKNQFSLKLSSVTAADTAVYYCARAPRYNWNYGWFDPWGQGTLVTVSS
VL: EIVLTQSPGTLSLSPGERATLSCRASQQVSSTYLAWYQQKPGQAPRLLFYGASSRATGIPDRFSRSGSGTDFTLTISRLEPEDFAVYYCQQYDVSPWTFGQGTKVEIKR
As for B5, the Kd worked out at 9.39 nM with cynomolgus TIGIT and 0.283 nM in the test with human TIGIT.

B6: 29E10 (antibody, V domains shown)
VH: EVQLVESGGGLVQPGGSLRLSCAASGFTFRNYDMHWVRQVPGKGLEWVSDIGNSGETYYLGSVKGRFTISRENAKNSLYLQMNSLRAGDTAVYYCVREEFGYGMDVWGQGTTVTVSS
VL: DIQMTQSPSSLSASVGDRVTITCRASQGIRNDLGWYQQKPGKAPKRLIYAASSLQSGVPSRFSGSGSGTEFTLTISSLQPEDFATYYCLQHNSYPLTFGGGTKVEIKR
B6 came in with a Kd with human CD112R (N81D) of 0.126 nM.

B7: 24F1 (antibody, V domains shown)
VH: EVQLVESGGGLVQPGGSLRLSCAASGFTFSRDDMHWVRQATGKGLEWVAGIDNAGDTYYPGSVKGRFTISRENAKNSLYLQMNSLRAGDTAIYYCAREGQWPYGMDVWGQGTTVTVSS
VL: DIQMTQSPSSLSASVGDRVTITCRASQGIRNDLGWYQQKPGKAPKRLIYSASSLQSGVSSRFSGSGSGTEFTLTISSLQPEDFATYYCLQSNSYPLTFGGGTKVEIKR
B7: the Kd with human CD112R (N81D) is 0.0506 nM.

B8: 1E1.016 (antibody, V domains shown)
VH: QVQLVQSGAEVKKPGASVKVSCKASGYTFTDYYIYWVRQAPGQGLEWMGWINPNAGGTNYAQKFQGRVTMTRDTSISTAYIELSRLRSDDTAVYYCAREDNFNGMDVWGQGTTVTVSS
VL: DIQMTQSPSSLSASVGDRVTITCRASQGIRNDLGWYQQKPGKAPKRLIYAASSLQSGVPSRFSGSGSGTEFTLTISSLQPEDFATYYCLQLNAYPLTFGGGTKVEIKR
The molecule B8 had a Kd with human CD112R (N81D) of 0.25 nM.

B9: 24F1.001 (antibody, V domains shown)
VH: EVQLVESGGGLVQPGGSLRLSCAASGFTFSRDDMHWVRQATGKGLEWVAGIDNAGETYYPGSVKGRFTISRENAKNSLYLQMNSLRAGDTAIYYCAREGQWPYGMDVWGQGTTVTVSS
VL: DIQMTQSPSSLSASVGDRVTITCRASQGIRNDLGWYQQKPGKAPKRLIYSASSLQSGVSSRFSGSGSGTEFTLTISSLQPEDFATYYCLQSNSYPLTFGGGTKVEIKR
Take B9: the affinity in the test with human CD112R (N81D), expressed as Kd, was 0.0594 nM.
